Reference: patent US7183387 (Genentech, dated 2007)

B1: E27 IgG1 variant H268(281)Y (antibody)
heavy: not shown
light: DIQLTQSPSSLSASVGDRVTITCRASKPVDGEGDSYLNWYQQKPGKAPKLLIYAASYLESGVPSRFSGSGSGTDFTLTISSLQPEDFATYYCQQSHEDPYTFGQGTKVEIKRTVAAPSVFIFPPSDEQLKSGTASVVCLLNNFYPREAKVQWKVDNALQSGNSQESVTEQDSKDSTYSLSSTLTLSKADYEKHKVYACEVTHQGLSSPVTKSFNRGEC
notes: also called IG2 87
B2: E27 IgG1 variant K320(339)E (antibody)
heavy: not shown
light: DIQLTQSPSSLSASVGDRVTITCRASKPVDGEGDSYLNWYQQKPGKAPKLLIYAASYLESGVPSRFSGSGSGTDFTLTISSLQPEDFATYYCQQSHEDPYTFGQGTKVEIKRTVAAPSVFIFPPSDEQLKSGTASVVCLLNNFYPREAKVQWKVDNALQSGNSQESVTEQDSKDSTYSLSSTLTLSKADYEKHKVYACEVTHQGLSSPVTKSFNRGEC
notes: also called IG2 205
B3: E27 IgG1 variant K274(287)Q (antibody)
heavy: not shown
light: DIQLTQSPSSLSASVGDRVTITCRASKPVDGEGDSYLNWYQQKPGKAPKLLIYAASYLESGVPSRFSGSGSGTDFTLTISSLQPEDFATYYCQQSHEDPYTFGQGTKVEIKRTVAAPSVFIFPPSDEQLKSGTASVVCLLNNFYPREAKVQWKVDNALQSGNSQESVTEQDSKDSTYSLSSTLTLSKADYEKHKVYACEVTHQGLSSPVTKSFNRGEC
B4: E27 IgG1 variant K326(345)S (antibody)
heavy: not shown
light: DIQLTQSPSSLSASVGDRVTITCRASKPVDGEGDSYLNWYQQKPGKAPKLLIYAASYLESGVPSRFSGSGSGTDFTLTISSLQPEDFATYYCQQSHEDPYTFGQGTKVEIKRTVAAPSVFIFPPSDEQLKSGTASVVCLLNNFYPREAKVQWKVDNALQSGNSQESVTEQDSKDSTYSLSSTLTLSKADYEKHKVYACEVTHQGLSSPVTKSFNRGEC
B5: E27 IgG1 variant K290(307)Q (antibody)
heavy: not shown
light: DIQLTQSPSSLSASVGDRVTITCRASKPVDGEGDSYLNWYQQKPGKAPKLLIYAASYLESGVPSRFSGSGSGTDFTLTISSLQPEDFATYYCQQSHEDPYTFGQGTKVEIKRTVAAPSVFIFPPSDEQLKSGTASVVCLLNNFYPREAKVQWKVDNALQSGNSQESVTEQDSKDSTYSLSSTLTLSKADYEKHKVYACEVTHQGLSSPVTKSFNRGEC
notes: also called IG2 73
B6: E27 IgG1 variant K322(341)N (antibody)
heavy: not shown
light: DIQLTQSPSSLSASVGDRVTITCRASKPVDGEGDSYLNWYQQKPGKAPKLLIYAASYLESGVPSRFSGSGSGTDFTLTISSLQPEDFATYYCQQSHEDPYTFGQGTKVEIKRTVAAPSVFIFPPSDEQLKSGTASVVCLLNNFYPREAKVQWKVDNALQSGNSQESVTEQDSKDSTYSLSSTLTLSKADYEKHKVYACEVTHQGLSSPVTKSFNRGEC
notes: also called IG2 207
B7: E27 IgG1 variant K322(341)R (antibody)
heavy: not shown
light: DIQLTQSPSSLSASVGDRVTITCRASKPVDGEGDSYLNWYQQKPGKAPKLLIYAASYLESGVPSRFSGSGSGTDFTLTISSLQPEDFATYYCQQSHEDPYTFGQGTKVEIKRTVAAPSVFIFPPSDEQLKSGTASVVCLLNNFYPREAKVQWKVDNALQSGNSQESVTEQDSKDSTYSLSSTLTLSKADYEKHKVYACEVTHQGLSSPVTKSFNRGEC
notes: also called IG2 155
B8: E27 IgG1 variant K320(339)M (antibody)
heavy: not shown
light: DIQLTQSPSSLSASVGDRVTITCRASKPVDGEGDSYLNWYQQKPGKAPKLLIYAASYLESGVPSRFSGSGSGTDFTLTISSLQPEDFATYYCQQSHEDPYTFGQGTKVEIKRTVAAPSVFIFPPSDEQLKSGTASVVCLLNNFYPREAKVQWKVDNALQSGNSQESVTEQDSKDSTYSLSSTLTLSKADYEKHKVYACEVTHQGLSSPVTKSFNRGEC
notes: also called IG2 202
B9: E27 IgG1 variant K334(353)D (antibody)
heavy: not shown
light: DIQLTQSPSSLSASVGDRVTITCRASKPVDGEGDSYLNWYQQKPGKAPKLLIYAASYLESGVPSRFSGSGSGTDFTLTISSLQPEDFATYYCQQSHEDPYTFGQGTKVEIKRTVAAPSVFIFPPSDEQLKSGTASVVCLLNNFYPREAKVQWKVDNALQSGNSQESVTEQDSKDSTYSLSSTLTLSKADYEKHKVYACEVTHQGLSSPVTKSFNRGEC
notes: also called IG2 140
B10: E27 IgG1 variant K290(307)G (antibody)
heavy: not shown
light: DIQLTQSPSSLSASVGDRVTITCRASKPVDGEGDSYLNWYQQKPGKAPKLLIYAASYLESGVPSRFSGSGSGTDFTLTISSLQPEDFATYYCQQSHEDPYTFGQGTKVEIKRTVAAPSVFIFPPSDEQLKSGTASVVCLLNNFYPREAKVQWKVDNALQSGNSQESVTEQDSKDSTYSLSSTLTLSKADYEKHKVYACEVTHQGLSSPVTKSFNRGEC
notes: also called IG2 177
B11: E27 IgG1 variant K322(341)E (antibody)
heavy: not shown
light: DIQLTQSPSSLSASVGDRVTITCRASKPVDGEGDSYLNWYQQKPGKAPKLLIYAASYLESGVPSRFSGSGSGTDFTLTISSLQPEDFATYYCQQSHEDPYTFGQGTKVEIKRTVAAPSVFIFPPSDEQLKSGTASVVCLLNNFYPREAKVQWKVDNALQSGNSQESVTEQDSKDSTYSLSSTLTLSKADYEKHKVYACEVTHQGLSSPVTKSFNRGEC
B12: E27 IgG1 variant K290(307)S (antibody)
heavy: not shown
light: DIQLTQSPSSLSASVGDRVTITCRASKPVDGEGDSYLNWYQQKPGKAPKLLIYAASYLESGVPSRFSGSGSGTDFTLTISSLQPEDFATYYCQQSHEDPYTFGQGTKVEIKRTVAAPSVFIFPPSDEQLKSGTASVVCLLNNFYPREAKVQWKVDNALQSGNSQESVTEQDSKDSTYSLSSTLTLSKADYEKHKVYACEVTHQGLSSPVTKSFNRGEC
notes: also called IG2 75
B13: E27 IgG1 variant K326(345)D (antibody)
heavy: not shown
light: DIQLTQSPSSLSASVGDRVTITCRASKPVDGEGDSYLNWYQQKPGKAPKLLIYAASYLESGVPSRFSGSGSGTDFTLTISSLQPEDFATYYCQQSHEDPYTFGQGTKVEIKRTVAAPSVFIFPPSDEQLKSGTASVVCLLNNFYPREAKVQWKVDNALQSGNSQESVTEQDSKDSTYSLSSTLTLSKADYEKHKVYACEVTHQGLSSPVTKSFNRGEC
notes: also called IG2 211
B14: E27 IgG1 variant K320(339)Q (antibody)
heavy: not shown
light: DIQLTQSPSSLSASVGDRVTITCRASKPVDGEGDSYLNWYQQKPGKAPKLLIYAASYLESGVPSRFSGSGSGTDFTLTISSLQPEDFATYYCQQSHEDPYTFGQGTKVEIKRTVAAPSVFIFPPSDEQLKSGTASVVCLLNNFYPREAKVQWKVDNALQSGNSQESVTEQDSKDSTYSLSSTLTLSKADYEKHKVYACEVTHQGLSSPVTKSFNRGEC
notes: also called IG2 204
B15: E27 IgG1 variant K326(345)Q (antibody)
heavy: not shown
light: DIQLTQSPSSLSASVGDRVTITCRASKPVDGEGDSYLNWYQQKPGKAPKLLIYAASYLESGVPSRFSGSGSGTDFTLTISSLQPEDFATYYCQQSHEDPYTFGQGTKVEIKRTVAAPSVFIFPPSDEQLKSGTASVVCLLNNFYPREAKVQWKVDNALQSGNSQESVTEQDSKDSTYSLSSTLTLSKADYEKHKVYACEVTHQGLSSPVTKSFNRGEC
notes: also called IG2 210
B16: E27 IgG1 variant K326(345)N (antibody)
heavy: not shown
light: DIQLTQSPSSLSASVGDRVTITCRASKPVDGEGDSYLNWYQQKPGKAPKLLIYAASYLESGVPSRFSGSGSGTDFTLTISSLQPEDFATYYCQQSHEDPYTFGQGTKVEIKRTVAAPSVFIFPPSDEQLKSGTASVVCLLNNFYPREAKVQWKVDNALQSGNSQESVTEQDSKDSTYSLSSTLTLSKADYEKHKVYACEVTHQGLSSPVTKSFNRGEC
notes: also called IG2 209
B17: E27 IgG1 variant K326(345)E (antibody)
heavy: not shown
light: DIQLTQSPSSLSASVGDRVTITCRASKPVDGEGDSYLNWYQQKPGKAPKLLIYAASYLESGVPSRFSGSGSGTDFTLTISSLQPEDFATYYCQQSHEDPYTFGQGTKVEIKRTVAAPSVFIFPPSDEQLKSGTASVVCLLNNFYPREAKVQWKVDNALQSGNSQESVTEQDSKDSTYSLSSTLTLSKADYEKHKVYACEVTHQGLSSPVTKSFNRGEC
notes: also called IG2 212
B18: E27 IgG1 variant K322(341)Q (antibody)
heavy: not shown
light: DIQLTQSPSSLSASVGDRVTITCRASKPVDGEGDSYLNWYQQKPGKAPKLLIYAASYLESGVPSRFSGSGSGTDFTLTISSLQPEDFATYYCQQSHEDPYTFGQGTKVEIKRTVAAPSVFIFPPSDEQLKSGTASVVCLLNNFYPREAKVQWKVDNALQSGNSQESVTEQDSKDSTYSLSSTLTLSKADYEKHKVYACEVTHQGLSSPVTKSFNRGEC

Tests used:
Assay in all cases: ELISA, IgG:IgE hexamers on receptor-GST
[1] = target: T1, human FcγRIIA-R131 α subunit extracellular domain-6His-GST fusion (human, UniProt P12318 34-217)
T1 construct: also called FcγRIIA-Arg131; not shown: glutathione S-transferase (GST)
T1 sequence: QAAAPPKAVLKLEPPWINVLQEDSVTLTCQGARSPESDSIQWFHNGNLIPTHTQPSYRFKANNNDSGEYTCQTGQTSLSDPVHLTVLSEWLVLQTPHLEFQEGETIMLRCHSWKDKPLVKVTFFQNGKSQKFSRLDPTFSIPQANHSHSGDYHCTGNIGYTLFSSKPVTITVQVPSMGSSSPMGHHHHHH

[2] = target: T2, human FcγRIIIA-F158 α subunit extracellular domain-6His-GST fusion (human, UniProt P08637 17-208)
T2 construct: also called FcγRIIIA-Phe158; not shown: glutathione S-transferase (GST)

[3] = target: T3, human FcγRIIB α subunit extracellular domain-6His-GST fusion (human, UniProt P31994 43-217)
T3 construct: not shown: glutathione S-transferase (GST)
T3 sequence: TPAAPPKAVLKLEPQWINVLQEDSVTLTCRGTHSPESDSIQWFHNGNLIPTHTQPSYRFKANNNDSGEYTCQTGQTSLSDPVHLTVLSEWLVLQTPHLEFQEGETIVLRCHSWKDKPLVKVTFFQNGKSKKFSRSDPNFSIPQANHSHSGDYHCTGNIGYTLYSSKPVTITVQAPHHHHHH

T2 sequence (P08637 other isoform, or with tags, fused parts or gaps, form in doubt): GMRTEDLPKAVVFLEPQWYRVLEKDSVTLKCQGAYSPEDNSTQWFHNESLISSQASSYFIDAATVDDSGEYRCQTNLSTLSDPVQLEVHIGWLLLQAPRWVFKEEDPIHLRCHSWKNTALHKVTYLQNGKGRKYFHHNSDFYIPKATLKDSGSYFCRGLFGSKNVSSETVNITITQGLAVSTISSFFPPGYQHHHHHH

Binder	ratio to native IgG1 [1]	ratio to native IgG1 [2]	ratio to native IgG1 [3]
B1	1.19	0.76	1.29
B2	1.29	1.12	1.34
B3	0.86	0.62	0.94
B4	1.44	1.37	1.62
B5	1.17	1.4	1.26
B6	0.57	0.04	0.36
B7	0.87	0.92	0.87
B8	1.34	1.27	1.4
B9	0.51	1.13	0.4
B10	1.07	1.23	1.21
B11	1.38	0.81	1.34
B12	1.27	1.26	1.34
B13	1.68	1.36	2.01
B14	1.23	1.17	1.12
B15	1.36	1.15	1.41
B16	1.04	1.27	1
B17	1.34	1.26	1.47
B18	0.87	0.78	0.92
